From article PMC3258154

Target: eIF3 from HeLa cells (human (endogenous in HeLa)) (UniProt Q14152)
Assay: native gel or EMSA

concentration below which the complex starts to dissociate: 200 to 300 nM
Substance: eIF2 from HeLa cells (from UniProt P05198 1-315; P20042 1-333) (complex)
